Data reported in paper PMC13379236 (2026).

B1: C-terminal FLAG-tagged WT ZYG11B [human] / Strep-tagged NLRP1, C-terminal fragment generated by 3C cleavage (begins at G131) [human] (parent complex)
chain 1: PEDQAGAAMEEASPYSLLDICLNFLTTHLEKFCSARQDGTLCLQEPGVFPQEVADRLLRTMAFHGLLNDGTVGIFRGNQMRLKRACIRKAKISAVAFRKAFCHHKLVELDATGVNADITITDIISGLGSNKWIQQNLQCLVLNSLTLSLEDPYERCFSRLSGLRALSITNVLFYNEDLAEVASLPRLESLDISNTSITDITALLACKDRLKSLTMHHLKCLKMTTTQILDVVRELKHLNHLDISDDKQFTSDIALRLLEQKDILPNLVSLDVSGRKHVTDKAVEAFIQQRPSMQFVGLLATDAGYSEFLTGEGHLKVSGEANETQIAEALKRYSERAFFVREALFHLFSLTHVMEKTKPEILKLVVTGMRNHPMNLPVQLAASACVFNLTKQDLAAGMPVRLLADVTHLLLKAMEHFPNHQQLQKNCLLSLCSDRILQDVPFNRFEAAKLVMQWLCNHEDQNMQRMAVAIISILAAKLSTEQTAQLGTELFIVRQLLQIVKQKTNQNSVDTTLKFTLSALWNLTDESPTTCRHFIENQGLELFMRVLESFPTESSIQQKVLGLLNNIAEVQELHSELMWKDFIDHISSLLHSVEVEVSYFAAGIIAHLISRGEQAWTLSRSQRNSLLDDLHSAILKWPTPECEMVAYRSFNPFFPLLGCFTTPGVQLWAVWAMQHVCSKNPSRYCSMLIEEGGLQHLYNIKDHEHTDPHVQQIAVAILDSLEKHIVRHGRPPPCKKQPQARLN
chain 2: GSERRVLRQLPDTSGRRWREISASLLYQALPSSPDHESPSQESPNAPTSTAVLGSWGSPPQPSLAPREQEAPGTQWPLDETSGIYYTEIREREREKSEKGRPPWAAVVGTPPQAHTSLQPHHHPWEPSVRESLCSTWPWKNEDFNQKFTQLLLLQRPHPRSQDPLVKRSWPDYVEENRGHLIEIRDLFGPGLDTQEPRIVILQGAAGIGKSTLARQVKEAWGRGQLYGDRFQHVFYFSCRELAQSKVVSLAELIGKDGTATPAPIRQILSRPERLLFILDGVDEPGWVLQEPSSELCLHWSQPQPADALLGSLLGKTILPEASFLITARTTALQNLIPSLEQARWVEVLGFSESSRKEYFYRYFTDERQAIRAFRLVKSNKELWALCLVPWVSWLACTCLMQQMKRKEKLTLTSKTTTTLCLHYLAQALQAQPLGPQLRDLCSLAAEGIWQKKTLFSPDDLRKHGLDGAIISTFLKMGILQEHPIPLSYSFIHLCFQEFFAAMSYVLEDEKGRGKHSNCIIDLEKTLEAYGIHGLFGASTTRFLLGLLSDEGEREMENIFHCRLSQGRNLMQWVPSLQLLLQPHSLESLHCLYETRNKTFLTQVMAHFEEMGMCVETDMELLVCTFCIKFSRHVKKLQLIEGRQHRSTWSPTMVVLFRWVPVTDAYWQILFSVLKVTRNLKELDLSGNSLSHSAVKSLCKTLRRPRCLLETLRLAGCGLTAEDCKDLAFGLRANQTLTELDLSFNVLTDAGAKHLCQRLRQPSCKLQRLQLVSCGLTSDCCQDLASVLSASPSLKELDLQQNNLDDVGVRLLCEGLRHPACKLIRLGLDQTTLSDEMRQELRALEQEKPQLLIFSRRKPSVMTPTEGLDTGEMSNSTSSLKRQRLGSERAASHVAQANLKLLDVSKIFPIAEIAEESSPEVVPVELLCVPSPASQGDLHTKPLGTDDDFWGPTGPVATEVVDKEKNLYRVHFPVAGSYRWPNTGLCFVMREAVTVEIEFCVWDQFLGEINPQHSWMVAGPLLDIKAEPGAVEAVHLPHFVALQGGHVDTSLFQMAHFKEEGMLLEKPARVELHHIVLENPSFSPLGVLLKMIHNALRFIPVTSVVLLYHRVHPEEVTFHLYLIPSDCSIRKAIDDLEMKFQFVRIHKPPPLTPLYMGCRYTVSGSGSGMLEILPKELELCYRSPGEDQLFSEFYVGHLGSGIRLQVKDKKDETLVWEALVKPGDLMPATTLIPPARIAVPSPLDAPQLLHFVDQYREQLIARVTSVEVVLDKLHGQVLSQEQYERVLAENTRPSQMRKLFSLSQSWDRKCKDGLYQALKETHPHLIMELWEKGSKKGLLPLSS

Variants of: B1
Assay: coIP with western blot quantification; HEK293T cells, transfected for 48 h, with 3C protease; read off a plot

ratio to parent	Variant
~0.05	chain 1 E569A
~0.5	chain 1 E643K
~0.51	chain 1 Y684A
~0.85	chain 1 F515A
~0.05	chain 1 D525A
~0.94	chain 1 D434K
~0.08	chain 1 N566A
~1.1	chain 1 K514E
~0.05	chain 1 W521A
~0.27	chain 1 R465A
